Data set [1] deals with the molecule itself. As to the kind of experiment: SEC; ATP‐dATP‐loaded NrdR at high protein concentrations (440–550 μM).
Data set [2] deals with the molecule itself. As to the kind of experiment: SEC; Superdex 200 PC 3.2/30, 4–8 °C, Tris–HCl pH 9.0, 300 mM NaCl; NrdR pre‐incubated with AMP and dAMP.
Data set [3] concerns the molecule itself. Kind of data set: SEC; Superdex 200 PC 3.2/30, 4–8 °C, Tris–HCl pH 9.0, 300 mM NaCl; NrdR with 0.2 mM ADP and 0.2 mM MgCl2.
Data set [4] concerns the molecule itself. As to the kind of experiment: SEC; Superdex 200 PC 3.2/30, 4–8 °C, 25 or 50 mM Tris–HCl pH 9.0, 300 mM NaCl; 55 μM apo‐NrdR, no nucleotide effectors.
Data set [5] concerns the molecule itself. Kind of data set: SEC; Superdex 200 PC 3.2/30, 4–8 °C, Tris–HCl pH 9.0, 300 mM NaCl; ATP‐loaded NrdR (0.1 mM ATP), low MgCl2 (0.1–0.2 mM); 17–55 μM NrdR.
Data set [6] deals with the molecule itself. Kind of data set: SEC; Superdex 200 PC 3.2/30, 4–8 °C, Tris–HCl pH 9.0, 300 mM NaCl; ATP‐loaded NrdR, excess MgCl2 (1 mM or higher); elutes in the void volume.
Data set [7] deals with the molecule itself. As to the kind of experiment: SEC; Superdex 200 PC 3.2/30, 4–8 °C, Tris–HCl pH 9.0, 300 mM NaCl; NrdR pre‐incubated with ATP and dATP, nucleotides in the SEC buffer; 7–55 μM NrdR.
Data set [8] deals with the molecule itself. Kind of data set: SEC; Superdex 200 PC 3.2/30, 4–8 °C, Tris–HCl pH 9.0, 300 mM NaCl; NrdR pre‐incubated with ADP and dATP, nucleotides in the SEC buffer; 10–90 μM NrdR.
Data set [9] deals with the molecule itself. Kind of data set: crystal structure; SeMet‐EcoNrdR with ATP and dATP, 10 mg/mL; 0.1 M HEPES pH 7.5, 0.2 M MgCl2, 12.5% PEG 3350, 20 °C; one tetramer in the asymmetric unit.

Values joined by “and” are separate entries in the source; they are usually repeats but may differ in a detail not shown here. Equal entries are not always repeated.

B1: Escherichia coli NrdR (natural protein, E. coli K‐12 strain MG1655)
chain: MHCPFCFAVDTKVIDSRLVGEGSSVRRRRQCLVCNERFTTFEVAELVMPRVVKSNDVREPFNEEKLRSGMLRALEKRPVSSDDVEMAINHIKSQLRATGEREVPSKMIGNLVMEQLKKLDKVAYIRFASVYRSFEDIKEFGEEIARLED
notes: Transcriptional repressor NrdR of E. coli K‐12 strain MG1655, wild type (NP_414947.1); The oligomeric state depends on the loaded nucleotides (apo: dimer); ATP‐dATP, ADP‐dATP, ADP, AMP‐dAMP: tetramer; also called EcoNrdR; E. coli NrdR; source: E. coli BL21(DE3), purified (HisTrap FF Ni‐Sepharose, desalting)
Consider B1, for which the “stoichiometry N” value in [1] is 8 subunits and 16 subunits; in [2] it was 4.8 subunits; in data set [3], 4.5 subunits; in data set [4] it was 2.1 subunits; in data set [5], 12.1 subunits; in data set [6], more than 33 subunits. The “stoichiometry N” value in data set [7] amounted to 4.5 subunits; in [8], 4.8 subunits.

B2: Selenomethionine‐derivatized Escherichia coli NrdR (natural protein, E. coli K‐12 strain MG1655)
chain: MHCPFCFAVDTKVIDSRLVGEGSSVRRRRQCLVCNERFTTFEVAELVMPRVVKSNDVREPFNEEKLRSGMLRALEKRPVSSDDVEMAINHIKSQLRATGEREVPSKMIGNLVMEQLKKLDKVAYIRFASVYRSFEDIKEFGEEIARLED
modifications: selenomethionine in place of methionine
notes: Transcriptional repressor NrdR of E. coli K‐12 strain MG1655, wild type (NP_414947.1), from the same plasmid pET30a(+)::nrdR as m1; Same construct as m1, made in a methionine auxotroph with seleno‐L‐methionine; also called SeMet‐EcoNrdR; Se‐Met substituted EcoNrdR; source: E. coli B834 (DE3) in SelenoMet Minimal Media, purified
As to B2, the binding result in data set [9] is recorded as “binds”.

The values are drawn from PMC12176259, “Bacterial transcriptional repressor NrdR – a flexible multifactorial nucleotide sensor” (The Febs Journal, 2024).
